Reference: doi:10.1101/144360 (bioRxiv, 2017)
AGT = not defined here

Molecular target: T1, 6xHIS-SH3_(Boi1) (S. cerevisiae, UniProt P38041 13-77)
T1 sequence: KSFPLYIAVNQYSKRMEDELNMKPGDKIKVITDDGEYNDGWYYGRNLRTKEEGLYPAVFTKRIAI
Assay: SPR

Binder: 6xHis-SVSSKGPSNSLNLSTADLSLN-{AGT} (reading uncertain; also: AGT tag covalently labeled with SNAP-Biotin) [6xHis-Exo84_(121-141)-AGT]
- Kd: ~1000 nM
